# Measured values as given in publication PMC11025326 (Journal of Bacteriology, 2024).
# B1: 6xHisN-LapB^ΔTM (LapB^Δ1-22aa) (domain or fragment, S. Typhimurium, UniProt Q7CQG6 23-389, looked up)
# chain: SAQQTKQDEANRLSRDYVAGVNFLLSNQQDKAVDLFLDMLKEDTGTVEAHLTLGNLFRSRGEVDRAIRIHQTLMESASLTYEQRLLAVQQLGRDYMAAGLYDRAEDMFNQLTDETEFRVGALQQLLQIYQLTSDWQKAIEVAERLVKLGKDKQRIEIAHFYCELALQQMGNDDMDRAMALLKKGAAADKNSARVSIMMGRVYMARGDYAKAVESLQRVIVQDKELVSETLEMLQTCYQQLGKNAEWAEFLRRAVEENTGAGAELMLADILEAREGSDAAQVYITRQLQRHPTMRVFHKLMDYHLNEAEEGRAKESLMVLRDMVGEQVRSKPRYRCQKCGFTAYTLYWHCPSCRAWSTIKPIRGLDGQ
# notes: LPS assembly protein B (LapB/YciM), S. Typhimurium; transmembrane segment (residues 1-22) removed and replaced by an N-terminal polyhistidine tag; By calibrated gel filtration a homotrimer when alone, and two copies in the complex with one LpxC; also called 6xHisNLapB^Δ1-22; LapB cytosolic domain; source: E. coli BL21 (DE3), pACYC-Duet1, IPTG; in soluble lysate for the microscale co-purification; …
# Columns and labels:
# [1] = target: B1; experiment: SEC; settings: both partners purified
# [2] = target: the molecule itself; experiment: SEC; calibrated Superdex 200 Increase 10/300 GL; co-purified LapB^ΔTM-LpxC^Δ293-305 complex, 0.5 mg/mL; 20 mM HEPES, 300 mM NaCl, 10% glycerol, 1 mM DTT, pH 7.0
# [3] = target: the molecule itself; experiment: SEC; calibrated Superdex 200 Increase 10/300 GL; purified LapB^ΔTM alone, 0.5 mg/mL; 20 mM HEPES, 300 mM NaCl, 10% glycerol, 1 mM DTT, pH 7.0
Binder,stoichiometry N [1],stoichiometry N [2],stoichiometry N [3]
"LpxC^Δ293-305-S-Tag (enzyme, not shown: S-tag, C-terminal, kept) MIKQRTLKRIVQATGVGLHTGKKVTLTLRPAPANTGVIYRRTDLNPPVDFPADAKSVRDTMLCTCLVNEHDVRISTVEHLNAALAGLGIDNIVIEVNAPEIPIMDGSAAPFVYLLLDAGIDELNCAKKFVRIKETVRVEDGDKWAEFRPYNGFTLDFTIDFNHPAIDSSSQRYAMNFSADAFMRQISRARTFGFMRDIEYLQSRGLCLGGSFDCAIVVDDYRVLNEDGLRFEDEFVRHKMLDAIGDLFMCGHNIIGAFTAYKSGHALNNKLLQAVLAKQEAWEFVTFQDDAE",0.5 LpxC per LapB chain,–,–
B1,–,2,3
